Laboratory results: patent US20110206676A1 (UNIVERSITY OF CHICAGO, published 2011)

Target: T1, EsaC (Staphylococcus aureus, UniProt A0A0H2XIK2 1-130)
T1 construct: Predicted soluble 130 amino acid protein; also called EsaC polypeptide; purified EsaC
T1 sequence: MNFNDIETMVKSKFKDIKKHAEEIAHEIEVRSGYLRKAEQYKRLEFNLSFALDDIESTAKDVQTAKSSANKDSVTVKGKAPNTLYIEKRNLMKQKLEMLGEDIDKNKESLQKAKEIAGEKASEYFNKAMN
Assay: purified proteins mixed; method not described

B1: EsaB (other)
chain: MNQHVKVTFDFTNYNYGTYDLAVPAYLPIKNLIALVLDSLDISIFDVNTQIKVMTKGQLLVENDRLIDYQIADGDILKLL
notes: 80 amino acid predicted soluble protein; also called purified EsaB
binding result: no binding
